Results: paper PMC5233613, “Structural insights into the recognition of phosphorylated FUNDC1 by LC3B in mitophagy” (Protein & Cell, 2016)
Non-standard residues stand in square brackets, D forms with d. No end group written: not given here. pY = N[C@@H](Cc1ccc(OP(=O)(O)O)cc1)C(=O)O; pS = N[C@@H](COP(=O)(O)O)C(=O)O

Assays:
Assay in all cases: ITC; MicroCal iTC200, 25 °C; proteins 0.25 mmol/L and peptides 3 mmol/L, dialyzed against buffer B (20 mmol/L Tris-HCl, 200 mmol/L NaCl, 1 mmol/L EDTA, pH 8.0); single binding site model
Conditions in all cases: both partners purified
[1] = biological target: microtubule-associated protein light chain 3 beta (LC3B), wild type, full-length 1-125 (human, UniProt Q9GZQ8 1-120)
LC3B R10E = LC3B R10E (human, UniProt Q9GZQ8 1-120, R10E)
LC3B R11E = LC3B R11E (human, UniProt Q9GZQ8 1-120, R11E)
LC3B R10A = LC3B R10A (human, UniProt Q9GZQ8 1-120, R10A)
LC3B R11A = LC3B R11A (human, UniProt Q9GZQ8 1-120, R11A)
LC3B K49A = LC3B K49A (human, UniProt Q9GZQ8 1-120, K49A)
LC3B K49E = LC3B K49E (human, UniProt Q9GZQ8 1-120, K49E)
LC3B K49R = LC3B K49R (human, UniProt Q9GZQ8 1-120, K49R)
LC3B R70A = LC3B R70A (human, UniProt Q9GZQ8 1-120, R70A)
LC3B R70E = LC3B R70E (human, UniProt Q9GZQ8 1-120, R70E)
LC3B D19A = LC3B D19A (human, UniProt Q9GZQ8 1-120, D19A)
LC3B I23A = LC3B I23A (human, UniProt Q9GZQ8 1-120, I23A)
LC3B K51A = LC3B K51A (human, UniProt Q9GZQ8 1-120, K51A)
LC3B L53A = LC3B L53A (human, UniProt Q9GZQ8 1-120, L53A)
LC3B L47A = LC3B L47A (human, UniProt Q9GZQ8 1-120, L47A)
LC3B D48A = LC3B D48A (human, UniProt Q9GZQ8 1-120, D48A)
LC3B T50A = LC3B T50A (human, UniProt Q9GZQ8 1-120, T50A)
LC3B F7A = LC3B F7A (human, UniProt Q9GZQ8 1-120, F7A)
LC3B V46A = LC3B V46A (human, UniProt Q9GZQ8 1-120, V46A)

B1: FUNDC1 LIR peptide 10-25 phosphorylated at Tyr18 (peptide)
peptide: DYESDDDS[pY]EVLDLTE
notes: also called FUNDC1 pY18; pY18 peptide; source: synthetic peptide (GL Biochem, Shanghai)
With B1 the Kd [1] was 16.8 ± 2.1 µM, the dH [1] was -0.93 kcal/mol and the “stoichiometry N” value [1] was 1.16.

B2: FUNDC1 LIR peptide 10-25 phosphorylated at Ser13 (peptide)
peptide: DYE[pS]DDDSYEVLDLTE
notes: also called FUNDC1 pS13; pS13 peptide; source: synthetic peptide (GL Biochem, Shanghai)
In the case of B2, the Kd [1] is reported as 4.63 ± 0.13 µM, the dH [1] is reported as -3.81 kcal/mol and the “stoichiometry N” value [1] is reported as 1.13. For the same binder, the Kd (LC3B R10E) was 34 ± 3.46 µM, the dH (LC3B R10E) was -2.83 kcal/mol and the “stoichiometry N” value (LC3B R10E) was 1.03. For the same binder, the Kd (LC3B R11E) was 17.1 ± 1.05 µM, the dH (LC3B R11E) was -2.39 kcal/mol and the “stoichiometry N” value (LC3B R11E) was 1.04. The Kd (LC3B R10A) was 28.5 ± 2.97 µM, the dH (LC3B R10A) was -3.67 kcal/mol and the “stoichiometry N” value (LC3B R10A) was 1.02. For the same binder, the Kd (LC3B R11A) was 11.2 ± 0.73 µM, the dH (LC3B R11A) was -4.1 kcal/mol and the “stoichiometry N” value (LC3B R11A) was 1.11.

B3: FUNDC1 LIR peptide 10-25 phosphorylated at Ser17 (peptide)
peptide: DYESDDD[pS]YEVLDLTE
notes: also called FUNDC1 pS17; FUNDC1 pS17 peptide; source: synthetic peptide (GL Biochem, Shanghai)
In the case of B3, the Kd [1] is reported as 0.59 ± 0.06 µM, the dH [1] is reported as -3.51 kcal/mol and the “stoichiometry N” value [1] is reported as 1. The Kd (LC3B K49A) was 3.56 ± 0.21 µM, the dH (LC3B K49A) was -4.9 kcal/mol and the “stoichiometry N” value (LC3B K49A) was 1.08. The Kd (LC3B K49E) was 120 ± 5.72 µM, the dH (LC3B K49E) was -4.49 kcal/mol and the “stoichiometry N” value (LC3B K49E) was 0.93. The Kd (LC3B K49R) was 0.33 ± 0.07 µM, the dH (LC3B K49R) was -5.78 kcal/mol and the “stoichiometry N” value (LC3B K49R) was 1.17. For the same binder, the Kd (LC3B R70A) was 15.8 ± 1.5 µM, the dH (LC3B R70A) was -1.8 kcal/mol and the “stoichiometry N” value (LC3B R70A) was 1.04. The Kd (LC3B R70E) was 61 ± 3.44 µM, the dH (LC3B R70E) was -2.54 kcal/mol and the “stoichiometry N” value (LC3B R70E) was 1.03. For the same binder, the Kd (LC3B D19A) was 2.39 ± 0.3 µM, the dH (LC3B D19A) was -2.78 kcal/mol and the “stoichiometry N” value (LC3B D19A) was 1.16. For the same binder, the Kd (LC3B I23A) was 4.85 ± 0.25 µM, the dH (LC3B I23A) was -1.53 kcal/mol and the “stoichiometry N” value (LC3B I23A) was 1.04. For the same binder, the Kd (LC3B K51A) was 5.92 ± 0.75 µM, the dH (LC3B K51A) was -2.66 kcal/mol and the “stoichiometry N” value (LC3B K51A) was 1.03. The Kd (LC3B L53A) was 0.97 ± 0.14 µM, the dH (LC3B L53A) was -2.61 kcal/mol and the “stoichiometry N” value (LC3B L53A) was 1.03.

B4: FUNDC1 LIR peptide 10-25, unphosphorylated (peptide)
peptide: DYESDDDSYEVLDLTE
notes: FUNDC1 (Fun14 domain-containing protein 1), LIR and flanking residues 10-25; also called unphosphorylated FUNDC1 peptide; FUNDC1 peptide; source: synthetic peptide (GL Biochem, Shanghai)
B4 was tested, and the Kd [1] was 1.78 ± 0.16 µM, the dH [1] was -3.15 kcal/mol and the “stoichiometry N” value [1] was 1.02. For the same binder, the Kd (LC3B L47A) was 3.07 ± 0.64 µM, the dH (LC3B L47A) was -2.06 kcal/mol and the “stoichiometry N” value (LC3B L47A) was 1.19. The Kd (LC3B D48A) was 1.17 ± 0.15 µM, the dH (LC3B D48A) was -3.03 kcal/mol and the “stoichiometry N” value (LC3B D48A) was 0.98. The Kd (LC3B T50A) was 2.81 ± 0.31 µM, the dH (LC3B T50A) was -2.65 kcal/mol and the “stoichiometry N” value (LC3B T50A) was 1.02. For the same binder, the Kd (LC3B R10A) was 11.4 ± 1.14 µM, the dH (LC3B R10A) was -3.56 kcal/mol and the “stoichiometry N” value (LC3B R10A) was 1.01. For the same binder, the Kd (LC3B R11A) was 5.62 ± 0.25 µM, the dH (LC3B R11A) was -4.51 kcal/mol and the “stoichiometry N” value (LC3B R11A) was 1.12. For the same binder, the Kd (LC3B F7A) was 3.52 ± 0.23 µM, the dH (LC3B F7A) was -3.08 kcal/mol and the “stoichiometry N” value (LC3B F7A) was 1.17. For the same binder, the Kd (LC3B V46A) was 1.59 ± 0.19 µM, the dH (LC3B V46A) was -4.86 kcal/mol and the “stoichiometry N” value (LC3B V46A) was 1.02.
